The values that follow come from article PMC5988984.

This assay concerns the target HIV-1 reverse transcriptase p66 (HIV-1). Briefly: SEC. (In gel filtration, larger molecules generally elute earlier.)

Broadly, the stoichiometry N is the number of molecules, sites or subunits per partner or assembly. Substance “HIV-1 reverse transcriptase p66 (enzyme)” gave a stoichiometry N of 2.
